Laboratory results taken from US20140072613A1, “Compositions and Methods for Treating Cutaneous Scarring” (priority 2012, published 2014).

Assays:
Assay in all cases: cell-based or functional assay
[1] = molecular target: CK1δ(h) (human) (UniProt P48730)
[2] = molecular target: T1, Fms(h) (human) (UniProt P07333)
T1 sequence (looked up): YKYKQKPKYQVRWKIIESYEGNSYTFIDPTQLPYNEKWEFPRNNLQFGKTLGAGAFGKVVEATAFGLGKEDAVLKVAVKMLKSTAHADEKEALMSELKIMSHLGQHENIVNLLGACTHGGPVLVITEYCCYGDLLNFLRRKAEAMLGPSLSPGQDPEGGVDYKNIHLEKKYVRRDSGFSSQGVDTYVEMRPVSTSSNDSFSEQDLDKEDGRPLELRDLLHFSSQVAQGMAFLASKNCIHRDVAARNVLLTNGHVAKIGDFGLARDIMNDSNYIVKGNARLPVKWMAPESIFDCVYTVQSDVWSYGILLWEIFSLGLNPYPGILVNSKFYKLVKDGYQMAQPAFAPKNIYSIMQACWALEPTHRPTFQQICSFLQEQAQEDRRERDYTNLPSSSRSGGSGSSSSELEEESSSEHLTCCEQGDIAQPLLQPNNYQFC

[3] = molecular target: IRR(h) (human) (UniProt P14616)
[4] = molecular target: JAK3(h) (human) (UniProt P52333)
[5] = molecular target: T2, LKB1(h) (human) (UniProt Q15831)
T2 sequence (looked up): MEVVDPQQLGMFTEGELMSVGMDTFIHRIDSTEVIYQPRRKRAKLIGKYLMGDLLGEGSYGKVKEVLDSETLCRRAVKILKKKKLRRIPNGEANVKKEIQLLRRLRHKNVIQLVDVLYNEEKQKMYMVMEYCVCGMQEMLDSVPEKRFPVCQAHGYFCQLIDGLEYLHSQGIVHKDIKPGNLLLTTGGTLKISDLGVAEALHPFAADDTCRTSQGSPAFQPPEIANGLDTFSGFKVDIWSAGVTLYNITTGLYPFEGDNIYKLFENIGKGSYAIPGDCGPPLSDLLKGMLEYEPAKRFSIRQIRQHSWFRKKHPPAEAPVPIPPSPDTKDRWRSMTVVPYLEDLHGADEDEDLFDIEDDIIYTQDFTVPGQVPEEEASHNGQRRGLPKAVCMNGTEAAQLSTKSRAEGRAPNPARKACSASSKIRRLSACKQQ

[6] = molecular target: MAPK2(h) (human) (UniProt P28482)
[7] = molecular target: T3, Mer(h) (human) (UniProt Q12866)
T3 sequence (looked up): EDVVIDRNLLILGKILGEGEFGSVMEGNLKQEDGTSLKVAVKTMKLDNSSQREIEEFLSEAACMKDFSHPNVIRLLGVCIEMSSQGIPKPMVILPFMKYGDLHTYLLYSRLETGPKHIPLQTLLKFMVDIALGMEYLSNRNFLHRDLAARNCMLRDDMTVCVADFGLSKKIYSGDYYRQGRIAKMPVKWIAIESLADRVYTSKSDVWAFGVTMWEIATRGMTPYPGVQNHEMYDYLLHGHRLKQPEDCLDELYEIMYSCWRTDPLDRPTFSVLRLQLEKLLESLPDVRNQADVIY

[8] = molecular target: PDGFRα(V561D)(h) (human) (UniProt P16234)
[9] = molecular target: PDGFRβ(h) (human) (UniProt P09619)
[10] = molecular target: PKBα(h) (human) (UniProt P31749)
[11] = molecular target: PKBγ(h) (human) (UniProt Q9Y243)
[12] = molecular target: PKCα(h) (human) (UniProt P17252)
[13] = molecular target: T4, Ret(V804L)(h) (human) (UniProt P07949)
T4 sequence (looked up): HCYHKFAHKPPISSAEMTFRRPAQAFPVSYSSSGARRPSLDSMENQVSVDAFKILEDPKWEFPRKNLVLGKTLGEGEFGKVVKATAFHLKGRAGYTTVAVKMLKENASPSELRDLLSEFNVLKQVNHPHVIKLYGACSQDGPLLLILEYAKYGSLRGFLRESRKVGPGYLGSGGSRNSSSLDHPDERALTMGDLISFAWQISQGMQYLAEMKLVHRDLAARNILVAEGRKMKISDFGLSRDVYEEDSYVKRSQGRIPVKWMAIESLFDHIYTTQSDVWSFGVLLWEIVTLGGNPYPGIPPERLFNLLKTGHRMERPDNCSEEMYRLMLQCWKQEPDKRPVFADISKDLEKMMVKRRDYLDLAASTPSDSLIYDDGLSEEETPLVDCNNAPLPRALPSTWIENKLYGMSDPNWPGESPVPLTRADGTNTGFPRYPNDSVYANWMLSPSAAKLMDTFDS

[14] = molecular target: Rsk3(h) (human) (UniProt Q15349)
[15] = molecular target: Rsk4(h) (human) (UniProt Q9UK32)
[16] = molecular target: T5, SGK2(h) (human) (UniProt Q9HBY8)
T5 sequence (looked up): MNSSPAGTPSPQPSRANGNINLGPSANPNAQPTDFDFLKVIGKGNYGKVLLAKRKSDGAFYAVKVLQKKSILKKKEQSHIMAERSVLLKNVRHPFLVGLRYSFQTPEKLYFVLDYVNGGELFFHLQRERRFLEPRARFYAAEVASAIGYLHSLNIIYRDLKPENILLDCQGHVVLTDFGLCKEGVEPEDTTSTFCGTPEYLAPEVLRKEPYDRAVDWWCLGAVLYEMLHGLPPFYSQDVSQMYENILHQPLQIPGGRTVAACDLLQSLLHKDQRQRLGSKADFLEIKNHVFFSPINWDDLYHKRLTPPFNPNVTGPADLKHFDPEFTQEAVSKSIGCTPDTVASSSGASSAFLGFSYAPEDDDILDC

[17] = molecular target: Src(1-530)(h) (human) (UniProt P12931)
[18] = molecular target: ZAP-70(h) (human) (UniProt P43403)
[19] = molecular target: mTOR/FKBP12(h) (human) (UniProt P42345)
Chain of mTOR/FKBP12(h) (human) (P42345 1362-2549 limits assumed, chain 1 of 2): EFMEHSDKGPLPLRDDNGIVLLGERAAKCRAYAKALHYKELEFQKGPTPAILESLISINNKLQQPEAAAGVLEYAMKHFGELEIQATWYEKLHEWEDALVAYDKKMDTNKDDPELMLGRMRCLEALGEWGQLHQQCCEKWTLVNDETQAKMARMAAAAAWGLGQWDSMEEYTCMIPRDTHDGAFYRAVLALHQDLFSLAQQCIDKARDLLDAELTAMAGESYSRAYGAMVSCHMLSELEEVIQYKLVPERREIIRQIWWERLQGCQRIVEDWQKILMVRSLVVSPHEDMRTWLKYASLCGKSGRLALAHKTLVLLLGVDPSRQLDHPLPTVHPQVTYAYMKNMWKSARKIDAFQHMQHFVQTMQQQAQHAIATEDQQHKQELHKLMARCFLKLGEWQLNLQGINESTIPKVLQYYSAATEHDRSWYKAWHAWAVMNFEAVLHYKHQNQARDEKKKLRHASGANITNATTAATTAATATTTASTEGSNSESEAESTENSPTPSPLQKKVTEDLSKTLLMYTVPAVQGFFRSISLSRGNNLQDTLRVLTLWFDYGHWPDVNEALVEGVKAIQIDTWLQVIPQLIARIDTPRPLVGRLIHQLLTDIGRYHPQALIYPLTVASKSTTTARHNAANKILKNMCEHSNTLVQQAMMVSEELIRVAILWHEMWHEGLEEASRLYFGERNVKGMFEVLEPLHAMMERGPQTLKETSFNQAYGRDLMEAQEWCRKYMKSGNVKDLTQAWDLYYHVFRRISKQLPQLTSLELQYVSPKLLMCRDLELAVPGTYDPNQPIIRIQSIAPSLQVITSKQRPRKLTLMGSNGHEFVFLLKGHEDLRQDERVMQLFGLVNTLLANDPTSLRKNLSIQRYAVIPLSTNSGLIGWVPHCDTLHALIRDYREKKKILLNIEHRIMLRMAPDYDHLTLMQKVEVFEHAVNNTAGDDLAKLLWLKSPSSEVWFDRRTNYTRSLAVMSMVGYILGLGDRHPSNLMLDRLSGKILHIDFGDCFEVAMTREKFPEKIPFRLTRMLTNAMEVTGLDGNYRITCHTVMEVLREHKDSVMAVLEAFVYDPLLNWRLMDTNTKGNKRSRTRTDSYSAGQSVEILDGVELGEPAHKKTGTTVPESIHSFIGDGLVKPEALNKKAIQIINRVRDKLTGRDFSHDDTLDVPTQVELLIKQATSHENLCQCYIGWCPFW
Chain of mTOR/FKBP12(h) (human) (P62942 whole entry, chain 2 of 2, further chain): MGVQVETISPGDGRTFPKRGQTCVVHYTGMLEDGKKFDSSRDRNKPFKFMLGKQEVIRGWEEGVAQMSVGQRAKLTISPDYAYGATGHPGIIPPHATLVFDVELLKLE

Chain of MAPK2(h) (human) (P28482 whole entry): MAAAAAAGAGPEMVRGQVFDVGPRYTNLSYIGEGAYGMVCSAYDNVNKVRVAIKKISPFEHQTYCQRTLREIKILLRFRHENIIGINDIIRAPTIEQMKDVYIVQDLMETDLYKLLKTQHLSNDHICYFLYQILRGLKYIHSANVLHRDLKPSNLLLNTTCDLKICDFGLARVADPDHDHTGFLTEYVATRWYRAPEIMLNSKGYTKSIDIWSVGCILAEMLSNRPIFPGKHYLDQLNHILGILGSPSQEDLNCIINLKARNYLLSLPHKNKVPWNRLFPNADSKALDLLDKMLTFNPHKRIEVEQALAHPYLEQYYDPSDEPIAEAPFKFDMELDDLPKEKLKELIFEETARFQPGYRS
Chain of Rsk3(h) (human) (Q15349 whole entry): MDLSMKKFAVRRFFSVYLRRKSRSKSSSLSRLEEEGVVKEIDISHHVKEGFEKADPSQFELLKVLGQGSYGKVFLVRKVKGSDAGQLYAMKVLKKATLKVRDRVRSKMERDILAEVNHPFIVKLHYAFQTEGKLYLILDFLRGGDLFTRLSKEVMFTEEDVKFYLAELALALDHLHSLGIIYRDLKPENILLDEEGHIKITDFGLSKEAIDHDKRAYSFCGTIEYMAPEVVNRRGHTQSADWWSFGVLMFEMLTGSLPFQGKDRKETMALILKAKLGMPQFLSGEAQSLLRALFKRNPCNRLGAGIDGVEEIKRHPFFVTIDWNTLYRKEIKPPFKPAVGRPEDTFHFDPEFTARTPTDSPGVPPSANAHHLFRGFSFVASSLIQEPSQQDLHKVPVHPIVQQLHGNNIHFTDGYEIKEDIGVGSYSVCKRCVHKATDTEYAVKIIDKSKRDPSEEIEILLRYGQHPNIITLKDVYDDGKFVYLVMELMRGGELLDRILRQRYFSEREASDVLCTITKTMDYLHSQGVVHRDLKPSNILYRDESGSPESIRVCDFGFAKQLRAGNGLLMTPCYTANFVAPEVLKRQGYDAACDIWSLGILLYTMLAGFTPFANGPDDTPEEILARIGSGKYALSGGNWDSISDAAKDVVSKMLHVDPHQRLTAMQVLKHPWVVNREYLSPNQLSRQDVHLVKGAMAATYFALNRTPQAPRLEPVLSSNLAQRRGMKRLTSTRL
Chain of CK1δ(h) (human) (P48730 1-294, stated change not applied): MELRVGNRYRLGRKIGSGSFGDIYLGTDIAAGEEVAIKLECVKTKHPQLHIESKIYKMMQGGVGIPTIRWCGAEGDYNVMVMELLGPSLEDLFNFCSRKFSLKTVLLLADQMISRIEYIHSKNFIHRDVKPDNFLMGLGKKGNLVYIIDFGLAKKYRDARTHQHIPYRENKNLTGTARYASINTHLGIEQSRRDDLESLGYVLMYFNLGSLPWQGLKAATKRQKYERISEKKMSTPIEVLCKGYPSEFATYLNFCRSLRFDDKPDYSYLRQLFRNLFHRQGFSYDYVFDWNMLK
Chain of PDGFRβ(h) (human) (P09619 557-1106 limits assumed): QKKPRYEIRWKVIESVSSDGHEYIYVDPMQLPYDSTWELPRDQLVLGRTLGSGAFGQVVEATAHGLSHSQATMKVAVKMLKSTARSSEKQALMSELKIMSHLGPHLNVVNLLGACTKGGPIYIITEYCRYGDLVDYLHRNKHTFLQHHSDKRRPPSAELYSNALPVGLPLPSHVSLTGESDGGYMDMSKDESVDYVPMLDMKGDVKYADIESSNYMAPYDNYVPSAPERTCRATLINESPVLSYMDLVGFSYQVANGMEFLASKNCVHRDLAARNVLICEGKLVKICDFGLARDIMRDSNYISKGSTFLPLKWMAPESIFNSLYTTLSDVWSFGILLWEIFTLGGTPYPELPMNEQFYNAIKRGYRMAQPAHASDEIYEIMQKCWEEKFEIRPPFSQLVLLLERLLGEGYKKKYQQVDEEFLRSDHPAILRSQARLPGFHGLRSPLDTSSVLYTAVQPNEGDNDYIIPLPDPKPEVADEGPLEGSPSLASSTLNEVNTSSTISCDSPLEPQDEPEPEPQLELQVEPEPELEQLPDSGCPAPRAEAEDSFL
Chain of Rsk4(h) (human) (Q9UK32 whole entry): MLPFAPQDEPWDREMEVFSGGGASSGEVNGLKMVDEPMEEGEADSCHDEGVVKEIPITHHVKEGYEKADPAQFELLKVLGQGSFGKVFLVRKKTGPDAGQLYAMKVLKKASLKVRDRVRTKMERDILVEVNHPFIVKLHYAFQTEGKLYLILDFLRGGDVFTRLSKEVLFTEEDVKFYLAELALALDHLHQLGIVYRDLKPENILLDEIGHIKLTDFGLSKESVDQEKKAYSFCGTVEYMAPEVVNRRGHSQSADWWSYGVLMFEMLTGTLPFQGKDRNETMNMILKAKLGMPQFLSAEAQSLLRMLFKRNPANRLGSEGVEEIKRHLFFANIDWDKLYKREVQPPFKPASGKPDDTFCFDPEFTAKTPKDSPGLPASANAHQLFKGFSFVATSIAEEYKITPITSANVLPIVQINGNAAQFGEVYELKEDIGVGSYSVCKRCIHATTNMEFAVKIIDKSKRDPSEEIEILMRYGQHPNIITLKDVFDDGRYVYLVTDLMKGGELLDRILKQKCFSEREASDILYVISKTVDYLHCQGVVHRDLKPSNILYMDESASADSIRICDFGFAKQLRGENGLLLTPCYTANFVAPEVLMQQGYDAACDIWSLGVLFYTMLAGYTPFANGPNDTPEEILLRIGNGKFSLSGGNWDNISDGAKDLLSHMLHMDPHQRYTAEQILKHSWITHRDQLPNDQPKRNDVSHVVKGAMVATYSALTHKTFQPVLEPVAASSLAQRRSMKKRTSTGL
Chain of JAK3(h) (human) (P52333 781-1124 limits assumed): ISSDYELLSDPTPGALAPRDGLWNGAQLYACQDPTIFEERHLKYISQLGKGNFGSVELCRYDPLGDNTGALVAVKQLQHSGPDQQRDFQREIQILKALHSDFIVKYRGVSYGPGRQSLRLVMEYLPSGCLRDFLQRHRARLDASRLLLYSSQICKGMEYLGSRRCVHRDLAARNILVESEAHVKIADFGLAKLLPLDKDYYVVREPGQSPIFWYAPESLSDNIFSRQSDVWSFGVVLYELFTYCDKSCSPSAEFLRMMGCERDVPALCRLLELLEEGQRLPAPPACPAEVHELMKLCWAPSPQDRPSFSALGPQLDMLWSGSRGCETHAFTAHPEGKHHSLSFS
Chain of PKBγ(h) (human) (Q9Y243 whole entry): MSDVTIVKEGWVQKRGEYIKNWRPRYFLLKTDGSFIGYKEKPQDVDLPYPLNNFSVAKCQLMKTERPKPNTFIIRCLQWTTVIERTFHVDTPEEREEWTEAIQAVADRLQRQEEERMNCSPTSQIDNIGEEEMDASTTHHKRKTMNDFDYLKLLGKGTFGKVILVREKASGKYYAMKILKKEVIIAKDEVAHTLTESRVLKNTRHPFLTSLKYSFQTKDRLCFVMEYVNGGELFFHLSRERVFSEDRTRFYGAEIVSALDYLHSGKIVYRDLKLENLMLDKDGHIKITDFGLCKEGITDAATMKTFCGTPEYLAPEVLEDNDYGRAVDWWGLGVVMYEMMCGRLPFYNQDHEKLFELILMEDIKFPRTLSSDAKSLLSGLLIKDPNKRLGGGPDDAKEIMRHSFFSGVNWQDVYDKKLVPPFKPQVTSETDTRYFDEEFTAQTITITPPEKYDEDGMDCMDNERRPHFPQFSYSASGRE

Work on MMI-0500 (peptide) yielded a % activity, 100 µM [1] of 78%, a % activity, 100 µM [2] of 14% and a % activity, 100 µM [3] of 10%. It also gave a % activity, 100 µM [4] of 95%, a % activity, 100 µM [5] of 51% and a % activity, 100 µM [6] of 60%. It also gave a % activity, 100 µM [7] of 17%, a % activity, 100 µM [8] of 146% and a % activity, 100 µM [9] of 40%. The % activity, 100 µM [10] was 30%, the % activity, 100 µM [11] was 20% and the % activity, 100 µM [12] was 3%. The % activity, 100 µM [13] was 20%, the % activity, 100 µM [14] was 23% and the % activity, 100 µM [15] was 29%. It also gave a % activity, 100 µM [16] of -1%, a % activity, 100 µM [17] of 21% and a % activity, 100 µM [18] of 1%. The % activity, 100 µM [19] was 140%.
